The values below come from publication doi:10.1101/369462.

The target of the assay is truncated M1 C-terminal domain ([change], aa 165-252) (influenza/A/FPV/Rostock/34) (UniProt P03487). Kind of assay: raster image correlation spectroscopy.

Substance “truncated M1 C-terminal domain ([change], aa 165-252) (from UniProt P03487 165-252) (domain or fragment)” displayed a brightness of M1 wt relative to M1-C (fold) of 4.3 fold.
